From PMC10397247
Read-outs that look alike come from different tables or passages of the source. Blank lines part the entries; values can stand above or below the binder they belong to.

How the values were obtained:
Test in all cases: two-hybrid library CCmax;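 also: natural log of median RNA to DNA barcode read ratio; higher means stronger binding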
[1] = target: T1, 4H3015-AA; conditions: mean of both orientations
T1 chain: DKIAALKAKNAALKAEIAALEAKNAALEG

[2] = target: T2, 4H3595-AA
T2 chain: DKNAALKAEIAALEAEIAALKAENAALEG

[3] = target: T3, 4H376-AA; conditions: mean of both orientations
T3 chain: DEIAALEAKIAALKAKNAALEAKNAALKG

[4] = target: T4, 4H3414-AA; conditions: mean of both orientations
T4 chain: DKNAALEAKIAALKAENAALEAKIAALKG

[5] = target: T5, 4H3073-AA
T5 chain: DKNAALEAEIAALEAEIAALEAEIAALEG

[6] = target: T6, 4H3438-AA; conditions: mean of both orientations
T6 chain: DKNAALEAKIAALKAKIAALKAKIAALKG

[7] = target: T7, 4H483-AA; conditions: mean of both orientations
T7 chain: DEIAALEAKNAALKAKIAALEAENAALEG

[8] = target: T8, 4H2903-AA; conditions: mean of both orientations
T8 chain: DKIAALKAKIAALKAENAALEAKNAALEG

[9] = target: T9, 4H2393-AA; conditions: mean of both orientations
T9 chain: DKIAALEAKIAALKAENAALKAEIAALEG

[10] = target: T10, 4H1629-AA; conditions: mean of both orientations
T10 chain: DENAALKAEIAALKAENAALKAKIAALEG

[11] = target: T11, 4H566-AA; conditions: mean of both orientations
T11 chain: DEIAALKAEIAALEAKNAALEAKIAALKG

[12] = target: T12, 4H1636-AA; conditions: mean of both orientations
T12 chain: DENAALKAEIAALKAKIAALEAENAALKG

[13] = target: T13, 4H678-AA; conditions: mean of both orientations
T13 chain: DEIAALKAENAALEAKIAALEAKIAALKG

[14] = target: T14, 4H3588-AA
T14 chain: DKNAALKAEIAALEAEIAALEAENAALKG

[15] = target: T15, 4H32-AA; conditions: mean of both orientations
T15 chain: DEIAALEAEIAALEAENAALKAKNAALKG

[16] = target: T16, 4H123-AA; conditions: mean of both orientations
T16 chain: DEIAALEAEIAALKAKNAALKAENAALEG

[17] = target: T17, 4H2729-AA; conditions: mean of both orientations
T17 chain: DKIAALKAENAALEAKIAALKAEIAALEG

[18] = target: T18, 4H1874-AA; conditions: mean of both orientations
T18 chain: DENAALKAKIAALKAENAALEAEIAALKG

[19] = target: T19, 4H2642-AA; conditions: mean of both orientations
T19 chain: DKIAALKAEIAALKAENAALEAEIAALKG

[20] = target: T20, 4H2883-AA; conditions: mean of both orientations
T20 chain: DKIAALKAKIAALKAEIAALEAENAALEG

[21] = target: T21, 4H1351-AA; conditions: mean of both orientations
T21 chain: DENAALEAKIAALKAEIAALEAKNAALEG

[22] = target: T22, 4H3343-AA; conditions: mean of both orientations
T22 chain: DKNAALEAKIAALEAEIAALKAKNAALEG

[23] = target: T23, 4H2165-AA
T23 chain: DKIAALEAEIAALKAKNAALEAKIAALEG

[24] = target: T24, 4H993-AA; conditions: mean of both orientations
T24 chain: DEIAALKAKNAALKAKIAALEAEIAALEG

[25] = target: T25, 4H342-AA; conditions: mean of both orientations
T25 chain: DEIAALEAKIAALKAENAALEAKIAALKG

[26] = target: T26, 4H2553-AA; conditions: mean of both orientations
T26 chain: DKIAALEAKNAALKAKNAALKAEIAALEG

[27] = target: T27, 4H2078-AA; conditions: mean of both orientations
T27 chain: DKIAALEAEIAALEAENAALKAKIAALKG

[28] = target: T28, 4H130-AA; conditions: mean of both orientations
T28 chain: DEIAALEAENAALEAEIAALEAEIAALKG

[29] = target: T29, 4H1349-AA; conditions: mean of both orientations
T29 chain: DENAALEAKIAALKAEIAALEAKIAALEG

[30] = target: T30, 4H1558-AA; conditions: mean of both orientations
T30 chain: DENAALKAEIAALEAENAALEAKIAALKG

[31] = target: T31, 4H2343-AA; conditions: mean of both orientations
T31 chain: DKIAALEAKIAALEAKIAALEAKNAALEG

[32] = target: T32, 4H43-AA; conditions: mean of both orientations
T32 chain: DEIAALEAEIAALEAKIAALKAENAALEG

[33] = target: T33, O11-AA; conditions: mean of both orientations
T33 chain: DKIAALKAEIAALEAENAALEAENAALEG

[34] = target: T34, O14-AA; conditions: mean of both orientations
T34 chain: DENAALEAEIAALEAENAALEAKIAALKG

[35] = target: T35, 4H2736-AA; conditions: mean of both orientations
T35 chain: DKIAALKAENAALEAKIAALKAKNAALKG

[36] = target: T36, 4H337-AA; conditions: mean of both orientations
T36 chain: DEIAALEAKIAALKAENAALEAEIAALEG

[37] = target: T37, 4H2888-AA; conditions: mean of both orientations
T37 chain: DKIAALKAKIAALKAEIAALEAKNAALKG

interaction score [1]: -1.1
interaction score ([2]; mean of both orientations): -1.4
interaction score [3]: -1.45
interaction score [4]: 0.535
interaction score ([5]; mean of both orientations): -1.75
interaction score [6]: -1.6
interaction score [7]: -1.76
interaction score [8]: -0.757
Binder: DEIAALEAENAALKAKNAALKAEIAALEG [4H249-AA]

interaction score [9]: -1.3
interaction score [10]: -1.34
interaction score [11]: -1.5
interaction score [12]: -1.31
interaction score [13]: -0.487
interaction score ([14]; mean of both orientations): -1.29
interaction score [15]: -2.43
interaction score [16]: -2.05
interaction score [17]: 0.0308
interaction score [18]: -1.61
interaction score [19]: -1.43
interaction score [20]: -1.14
interaction score [21]: -1.51
interaction score [22]: -0.81
interaction score ([23]; mean of both orientations): -1.33
interaction score [24]: 1.59
interaction score [25]: -1.39
interaction score [26]: -0.371
interaction score [27]: -0.975
Binder: DENAALEAENAALEAEIAALEAEIAALEG [4H1153-AA]

interaction score ([2]; mean of both orientations): 0.807
interaction score [4]: -1.01
interaction score [28]: 1.9
interaction score [29]: 0.365
interaction score [7]: -1.91
interaction score [8]: -1.62
interaction score [30]: -0.232
Binder: DENAALEAENAALKAKIAALKAEIAALEG [4H1257-AA]

interaction score [9]: -0.392
interaction score [11]: 0.482
interaction score [1]: -1.54
interaction score [13]: -0.25
interaction score [17]: -1.3
interaction score [5]: -1.45
interaction score [6]: -1.07
interaction score [19]: 0.223
interaction score [20]: -1.67
interaction score [22]: -0.847
interaction score [23]: 1.41
interaction score [24]: 0.0167
interaction score [25]: 1.73
interaction score [31]: -1.25
Binder: DKIAALEAEIAALKAKNAALEAKIAALEG [4H2165-AA]

interaction score [2]: 0.0501
interaction score [4]: -0.952
interaction score [28]: -0.874
interaction score [29]: 0.539
interaction score [7]: -0.857
interaction score [8]: 1.45
interaction score [30]: -1.61
Binder: DENAALEAEIAALEAKIAALEAKNAALKG [4H1064-AA]

interaction score [10]: -1.15
interaction score [14]: -1.17
interaction score [15]: -1.11
interaction score [16]: -1.25
interaction score [18]: 0.966
interaction score [21]: -1.31
interaction score [26]: -1.85
Binder: DENAALEAEIAALKAKNAALEAKIAALKG [4H1142-AA]

interaction score [32]: 1.97
interaction score [33]: 0.214
interaction score [34]: 2.08
interaction score [35]: -0.116
interaction score [36]: 0.173
interaction score [37]: 1.96
Binder: DENAALEAKIAALKAKIAALKAEIAALEG [4H1385-AA]
